Test results reported in EP2336190A2 (Genentech, Inc., dated 2011).

Molecular target: T1, VEGF (human, UniProt P15692-4 27-191, limits assumed)
T1 construct: also called human VEGF; vascular endothelial growth factor
Assay: competitive phage-ELISA, wt = pY0192

T1 sequence (P15692 other isoform, or with tags, fused parts or gaps limits assumed): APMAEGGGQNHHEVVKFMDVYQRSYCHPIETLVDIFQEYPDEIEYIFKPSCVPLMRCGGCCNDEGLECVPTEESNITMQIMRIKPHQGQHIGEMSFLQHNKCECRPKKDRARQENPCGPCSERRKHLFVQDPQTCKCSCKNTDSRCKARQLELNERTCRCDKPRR

Row | Binder | IC50 (mut) / IC50 (wt)
1 | pY0192 VH N52A (Fab, V domains shown) VH: EVQLVESGGGLVQPGGSLRLSCAASGYTFTNYGINWVRQAPGKGLEWVGWIATYTGEPTYAADFKRRFTFSLDTSKSTAYLQMNSLRAEDTAVYYCAKYPHYYGSSHWYFDVWGQGTL VL: DIQLTQSPSSLSASVGDRVTITCRANEQLSNYLNWYQQKPGKAPKVLIYFTSSLHSGVPSRFSGSGSGTDFTLTISSLQPEDFATYYCQQYSTVPWTFGQGTKVEIKR | > 150
2 | pY0192 VH H101A (Fab, V domains shown) VH: EVQLVESGGGLVQPGGSLRLSCAASGYTFTNYGINWVRQAPGKGLEWVGWINTYTGEPTYAADFKRRFTFSLDTSKSTAYLQMNSLRAEDTAVYYCAKYPAYYGSSHWYFDVWGQGTL VL: DIQLTQSPSSLSASVGDRVTITCRANEQLSNYLNWYQQKPGKAPKVLIYFTSSLHSGVPSRFSGSGSGTDFTLTISSLQPEDFATYYCQQYSTVPWTFGQGTKVEIKR | 4
3 | pY0192 VH N31A (Fab, V domains shown) VH: EVQLVESGGGLVQPGGSLRLSCAASGYTFTAYGINWVRQAPGKGLEWVGWINTYTGEPTYAADFKRRFTFSLDTSKSTAYLQMNSLRAEDTAVYYCAKYPHYYGSSHWYFDVWGQGTL VL: DIQLTQSPSSLSASVGDRVTITCRANEQLSNYLNWYQQKPGKAPKVLIYFTSSLHSGVPSRFSGSGSGTDFTLTISSLQPEDFATYYCQQYSTVPWTFGQGTKVEIKR | > 150
4 | pY0192 VH P100A (Fab, V domains shown) VH: EVQLVESGGGLVQPGGSLRLSCAASGYTFTNYGINWVRQAPGKGLEWVGWINTYTGEPTYAADFKRRFTFSLDTSKSTAYLQMNSLRAEDTAVYYCAKYAHYYGSSHWYFDVWGQGTL VL: DIQLTQSPSSLSASVGDRVTITCRANEQLSNYLNWYQQKPGKAPKVLIYFTSSLHSGVPSRFSGSGSGTDFTLTISSLQPEDFATYYCQQYSTVPWTFGQGTKVEIKR | 38
5 | pY0192 VH S106A (Fab, V domains shown) VH: EVQLVESGGGLVQPGGSLRLSCAASGYTFTNYGINWVRQAPGKGLEWVGWINTYTGEPTYAADFKRRFTFSLDTSKSTAYLQMNSLRAEDTAVYYCAKYPHYYGSAHWYFDVWGQGTL VL: DIQLTQSPSSLSASVGDRVTITCRANEQLSNYLNWYQQKPGKAPKVLIYFTSSLHSGVPSRFSGSGSGTDFTLTISSLQPEDFATYYCQQYSTVPWTFGQGTKVEIKR | > 150
6 | pY0192 VH I51A (Fab, V domains shown) VH: EVQLVESGGGLVQPGGSLRLSCAASGYTFTNYGINWVRQAPGKGLEWVGWANTYTGEPTYAADFKRRFTFSLDTSKSTAYLQMNSLRAEDTAVYYCAKYPHYYGSSHWYFDVWGQGTL VL: DIQLTQSPSSLSASVGDRVTITCRANEQLSNYLNWYQQKPGKAPKVLIYFTSSLHSGVPSRFSGSGSGTDFTLTISSLQPEDFATYYCQQYSTVPWTFGQGTKVEIKR | 4
7 | pY0192 VH I34A (Fab, V domains shown) VH: EVQLVESGGGLVQPGGSLRLSCAASGYTFTNYGANWVRQAPGKGLEWVGWINTYTGEPTYAADFKRRFTFSLDTSKSTAYLQMNSLRAEDTAVYYCAKYPHYYGSSHWYFDVWGQGTL VL: DIQLTQSPSSLSASVGDRVTITCRANEQLSNYLNWYQQKPGKAPKVLIYFTSSLHSGVPSRFSGSGSGTDFTLTISSLQPEDFATYYCQQYSTVPWTFGQGTKVEIKR | 6
8 | pY0192 VH N35A (Fab, V domains shown) VH: EVQLVESGGGLVQPGGSLRLSCAASGYTFTNYGIAWVRQAPGKGLEWVGWINTYTGEPTYAADFKRRFTFSLDTSKSTAYLQMNSLRAEDTAVYYCAKYPHYYGSSHWYFDVWGQGTL VL: DIQLTQSPSSLSASVGDRVTITCRANEQLSNYLNWYQQKPGKAPKVLIYFTSSLHSGVPSRFSGSGSGTDFTLTISSLQPEDFATYYCQQYSTVPWTFGQGTKVEIKR | 66
9 | pY0192 VH G33A (Fab, V domains shown) VH: EVQLVESGGGLVQPGGSLRLSCAASGYTFTNYAINWVRQAPGKGLEWVGWINTYTGEPTYAADFKRRFTFSLDTSKSTAYLQMNSLRAEDTAVYYCAKYPHYYGSSHWYFDVWGQGTL VL: DIQLTQSPSSLSASVGDRVTITCRANEQLSNYLNWYQQKPGKAPKVLIYFTSSLHSGVPSRFSGSGSGTDFTLTISSLQPEDFATYYCQQYSTVPWTFGQGTKVEIKR | 6
10 | pY0192 VH F29A (Fab, V domains shown) VH: EVQLVESGGGLVQPGGSLRLSCAASGYTATNYGINWVRQAPGKGLEWVGWINTYTGEPTYAADFKRRFTFSLDTSKSTAYLQMNSLRAEDTAVYYCAKYPHYYGSSHWYFDVWGQGTL VL: DIQLTQSPSSLSASVGDRVTITCRANEQLSNYLNWYQQKPGKAPKVLIYFTSSLHSGVPSRFSGSGSGTDFTLTISSLQPEDFATYYCQQYSTVPWTFGQGTKVEIKR | 16

Other lines, results leading:

Row | IC50 (mut) / IC50 (wt) | Binder
11 | 34 | pY0192 VH Y27A (Fab, V domains shown) VH: EVQLVESGGGLVQPGGSLRLSCAASGATFTNYGINWVRQAPGKGLEWVGWINTYTGEPTYAADFKRRFTFSLDTSKSTAYLQMNSLRAEDTAVYYCAKYPHYYGSSHWYFDVWGQGTL VL: DIQLTQSPSSLSASVGDRVTITCRANEQLSNYLNWYQQKPGKAPKVLIYFTSSLHSGVPSRFSGSGSGTDFTLTISSLQPEDFATYYCQQYSTVPWTFGQGTKVEIKR
12 | 9 | pY0192 VH T53A (Fab, V domains shown) VH: EVQLVESGGGLVQPGGSLRLSCAASGYTFTNYGINWVRQAPGKGLEWVGWINAYTGEPTYAADFKRRFTFSLDTSKSTAYLQMNSLRAEDTAVYYCAKYPHYYGSSHWYFDVWGQGTL VL: DIQLTQSPSSLSASVGDRVTITCRANEQLSNYLNWYQQKPGKAPKVLIYFTSSLHSGVPSRFSGSGSGTDFTLTISSLQPEDFATYYCQQYSTVPWTFGQGTKVEIKR
13 | 4 | pY0192 VH Y102A (Fab, V domains shown) VH: EVQLVESGGGLVQPGGSLRLSCAASGYTFTNYGINWVRQAPGKGLEWVGWINTYTGEPTYAADFKRRFTFSLDTSKSTAYLQMNSLRAEDTAVYYCAKYPHAYGSSHWYFDVWGQGTL VL: DIQLTQSPSSLSASVGDRVTITCRANEQLSNYLNWYQQKPGKAPKVLIYFTSSLHSGVPSRFSGSGSGTDFTLTISSLQPEDFATYYCQQYSTVPWTFGQGTKVEIKR
14 | > 150 | pY0192 VH Y32A (Fab, V domains shown) VH: EVQLVESGGGLVQPGGSLRLSCAASGYTFTNAGINWVRQAPGKGLEWVGWINTYTGEPTYAADFKRRFTFSLDTSKSTAYLQMNSLRAEDTAVYYCAKYPHYYGSSHWYFDVWGQGTL VL: DIQLTQSPSSLSASVGDRVTITCRANEQLSNYLNWYQQKPGKAPKVLIYFTSSLHSGVPSRFSGSGSGTDFTLTISSLQPEDFATYYCQQYSTVPWTFGQGTKVEIKR
15 | 3 | pY0192 VH T59A (Fab, V domains shown) VH: EVQLVESGGGLVQPGGSLRLSCAASGYTFTNYGINWVRQAPGKGLEWVGWINTYTGEPAYAADFKRRFTFSLDTSKSTAYLQMNSLRAEDTAVYYCAKYPHYYGSSHWYFDVWGQGTL VL: DIQLTQSPSSLSASVGDRVTITCRANEQLSNYLNWYQQKPGKAPKVLIYFTSSLHSGVPSRFSGSGSGTDFTLTISSLQPEDFATYYCQQYSTVPWTFGQGTKVEIKR
16 | > 150 | pY0192 VH W108A (Fab, V domains shown) VH: EVQLVESGGGLVQPGGSLRLSCAASGYTFTNYGINWVRQAPGKGLEWVGWINTYTGEPTYAADFKRRFTFSLDTSKSTAYLQMNSLRAEDTAVYYCAKYPHYYGSSHAYFDVWGQGTL VL: DIQLTQSPSSLSASVGDRVTITCRANEQLSNYLNWYQQKPGKAPKVLIYFTSSLHSGVPSRFSGSGSGTDFTLTISSLQPEDFATYYCQQYSTVPWTFGQGTKVEIKR
17 | > 150 | pY0192 VH W50A (Fab, V domains shown) VH: EVQLVESGGGLVQPGGSLRLSCAASGYTFTNYGINWVRQAPGKGLEWVGAINTYTGEPTYAADFKRRFTFSLDTSKSTAYLQMNSLRAEDTAVYYCAKYPHYYGSSHWYFDVWGQGTL VL: DIQLTQSPSSLSASVGDRVTITCRANEQLSNYLNWYQQKPGKAPKVLIYFTSSLHSGVPSRFSGSGSGTDFTLTISSLQPEDFATYYCQQYSTVPWTFGQGTKVEIKR
18 | > 150 | pY0192 VH Y99A (Fab, V domains shown) VH: EVQLVESGGGLVQPGGSLRLSCAASGYTFTNYGINWVRQAPGKGLEWVGWINTYTGEPTYAADFKRRFTFSLDTSKSTAYLQMNSLRAEDTAVYYCAKAPHYYGSSHWYFDVWGQGTL VL: DIQLTQSPSSLSASVGDRVTITCRANEQLSNYLNWYQQKPGKAPKVLIYFTSSLHSGVPSRFSGSGSGTDFTLTISSLQPEDFATYYCQQYSTVPWTFGQGTKVEIKR
19 | 4 | pY0192 VH T55A (Fab, V domains shown) VH: EVQLVESGGGLVQPGGSLRLSCAASGYTFTNYGINWVRQAPGKGLEWVGWINTYAGEPTYAADFKRRFTFSLDTSKSTAYLQMNSLRAEDTAVYYCAKYPHYYGSSHWYFDVWGQGTL VL: DIQLTQSPSSLSASVGDRVTITCRANEQLSNYLNWYQQKPGKAPKVLIYFTSSLHSGVPSRFSGSGSGTDFTLTISSLQPEDFATYYCQQYSTVPWTFGQGTKVEIKR
20 | 9 | pY0192 VH Y54A (Fab, V domains shown) VH: EVQLVESGGGLVQPGGSLRLSCAASGYTFTNYGINWVRQAPGKGLEWVGWINTATGEPTYAADFKRRFTFSLDTSKSTAYLQMNSLRAEDTAVYYCAKYPHYYGSSHWYFDVWGQGTL VL: DIQLTQSPSSLSASVGDRVTITCRANEQLSNYLNWYQQKPGKAPKVLIYFTSSLHSGVPSRFSGSGSGTDFTLTISSLQPEDFATYYCQQYSTVPWTFGQGTKVEIKR
21 | 19 | pY0192 VH Y109A (Fab, V domains shown) VH: EVQLVESGGGLVQPGGSLRLSCAASGYTFTNYGINWVRQAPGKGLEWVGWINTYTGEPTYAADFKRRFTFSLDTSKSTAYLQMNSLRAEDTAVYYCAKYPHYYGSSHWAFDVWGQGTL VL: DIQLTQSPSSLSASVGDRVTITCRANEQLSNYLNWYQQKPGKAPKVLIYFTSSLHSGVPSRFSGSGSGTDFTLTISSLQPEDFATYYCQQYSTVPWTFGQGTKVEIKR
22 | 5 | pY0192 VH Y103A (Fab, V domains shown) VH: EVQLVESGGGLVQPGGSLRLSCAASGYTFTNYGINWVRQAPGKGLEWVGWINTYTGEPTYAADFKRRFTFSLDTSKSTAYLQMNSLRAEDTAVYYCAKYPHYAGSSHWYFDVWGQGTL VL: DIQLTQSPSSLSASVGDRVTITCRANEQLSNYLNWYQQKPGKAPKVLIYFTSSLHSGVPSRFSGSGSGTDFTLTISSLQPEDFATYYCQQYSTVPWTFGQGTKVEIKR
